Assay results as given in article PMC3531742 (The Journal of Biological Chemistry, 2012).

Experiments:
[1] = target: laminin β1 LN-LEa1–4 fragment (mouse); experiment: SEC-MALS
[2] = target: laminin β1 LN-LEa1–4 fragment (mouse); experiment: SPR

stoichiometry N [1]: 1
Kd [2]: 22.3 ± 1.7 µM
B1: laminin γ1 LN-LEa1–4 fragment (domain or fragment)
chain: APLAAMDECADEGGRPQRCMPEFVNAAFNVTVVATNTCGTPPEEYCVQTGVTGVTKSCHLCDAGQQHLQHGAAFLTDYNNQADTTWWQSQTMLAGVQYPNSINLTLHLGKAFDITYVRLKFHTSRPESFAIYKRTREDGPWIPYQYYSGSCENTYSKANRGFIRTGGDEQQALCTDEFSDISPLTGGNVAFSTLEGRPSAYNFDNSPVLQEWVTATDIRVTLNRLNTFGDEVFNEPKVLKSYYYAISDFAVGGRCKCNGHASECVKNEFDKLMCNCKHNTYGVDCEKCLPFFNDRPWRRATAESASECLPCDCNGRSQECYFDPELYRSTGHGGHCTNCRDNTDGAKCERCRENFFRLGNTEACSPCHCSPVGSLSTQCDSYGRCSCKPGVMGDKCDRCQPGFHSLTEAGCRPCSCDPSGSTDECNVETGRCVCKDNVEGFNCERCKPGFFNLESSNPKGCTPAAAHHHHHH
